Holding throughout (test): flow cytometry on RBCs, antibody 10 ng/ml
One experiment addresses T1, rat CD47 (rat, UniProt P97829 19-303).
T1 construct: whole, on cells; also called CD47 on rat red blood cells
T1 sequence (looked up): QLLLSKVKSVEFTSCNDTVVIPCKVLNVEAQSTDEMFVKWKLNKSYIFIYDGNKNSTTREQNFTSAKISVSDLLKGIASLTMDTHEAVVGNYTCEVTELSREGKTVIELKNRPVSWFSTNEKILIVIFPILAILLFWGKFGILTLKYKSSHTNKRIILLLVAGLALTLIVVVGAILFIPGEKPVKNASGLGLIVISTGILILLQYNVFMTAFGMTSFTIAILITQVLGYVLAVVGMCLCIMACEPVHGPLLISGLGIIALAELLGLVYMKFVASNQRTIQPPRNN
On the procedure: (§1) Cross species reactivity of humanized antibodies of the present invention is determined using freshly isolated red blood cells (RBCs), which display CD47 on their surface, from human, mouse, rat, and pig according to the methods disclosed in Kamel et al. (2010) Blood. Transfus. 8(4):260-266.
(§2) RBCs are incubated for 60 minutes on ice with tissue culture supernatants containing the secreted humanized antibodies at a concentration of 10 ng/ml in a solution of phosphate buffered saline, pH 7.2, 2.5 mM EDTA (PBS+E). Cells are then washed with cold PBS+E, and incubated for an additional hour on ice with FITC labeled donkey anti-human antibody (Jackson Immuno Research Labs, West Grove, Pa.; Catalogue #709-096-149) in PBS+E. Cells are then washed with PBS+E, and antibody binding is analyzed using a BD FACSAria Cell Sorter (Becton Dickinson) or a C6 Accuri Flow Cytometer (Becton Dickinson). Antibody binding is quantitated by comparison of mean fluorescence values relative to that of chimeric antibody >VxP037-01LC (SEQ ID NO:7))/>VxP037-01HC (SEQ ID NO:57). The mean fluorescence value for each antibody is divided by the mean fluorescence value for the chimeric antibody.

The target in a further experiment is T2, human CD47 (human, UniProt Q08722 19-323).
T2 construct: whole, on cells; also called CD47 on human red blood cells
How it is done:
as §1, §2

In the next experiment the target is T3, pig CD47 (pig, UniProt Q9GKE8 19-303).
T3 construct: whole, on cells; also called CD47 on pig red blood cells
T3 sequence (looked up): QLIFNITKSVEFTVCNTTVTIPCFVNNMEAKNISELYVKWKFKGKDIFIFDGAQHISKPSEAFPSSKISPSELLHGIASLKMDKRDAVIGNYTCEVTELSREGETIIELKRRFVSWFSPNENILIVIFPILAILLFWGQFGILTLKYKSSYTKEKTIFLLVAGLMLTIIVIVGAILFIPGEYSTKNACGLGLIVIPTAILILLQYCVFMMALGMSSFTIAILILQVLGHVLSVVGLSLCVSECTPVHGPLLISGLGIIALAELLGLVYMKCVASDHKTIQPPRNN
How it is done:
as §1, §2

The next experiment addresses T4, mouse CD47 (mouse, UniProt Q61735 19-303).
T4 construct: whole, on cells; also called CD47 on mouse red blood cells
T4 sequence (looked up): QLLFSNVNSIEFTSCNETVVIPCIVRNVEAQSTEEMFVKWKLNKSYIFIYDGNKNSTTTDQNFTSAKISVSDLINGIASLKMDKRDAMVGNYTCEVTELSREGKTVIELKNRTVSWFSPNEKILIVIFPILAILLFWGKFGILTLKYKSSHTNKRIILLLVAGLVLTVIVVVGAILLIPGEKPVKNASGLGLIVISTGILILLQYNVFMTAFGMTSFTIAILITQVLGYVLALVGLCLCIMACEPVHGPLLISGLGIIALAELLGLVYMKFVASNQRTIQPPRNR
How it is done: as §1, §2

Where a chain is given by its changes, count along the chain named.

T2 sequence (Q08722 19-323): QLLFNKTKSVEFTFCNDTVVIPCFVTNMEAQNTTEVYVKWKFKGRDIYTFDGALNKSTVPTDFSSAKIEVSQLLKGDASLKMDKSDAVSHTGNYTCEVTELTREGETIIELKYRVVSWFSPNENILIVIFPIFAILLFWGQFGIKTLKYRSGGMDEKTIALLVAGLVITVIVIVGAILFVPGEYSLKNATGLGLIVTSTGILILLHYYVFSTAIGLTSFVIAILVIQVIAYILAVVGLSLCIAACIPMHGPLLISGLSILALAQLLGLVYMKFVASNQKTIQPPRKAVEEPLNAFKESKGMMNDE

B1: pVxK7b-037-hum16-LC/pVxK7b-037-hum16-HC (antibody, human IgG1, V domains shown)
VH: QVQLQESGPGLVKPSQTLSLTCTVSGYTFTNYYVFWVRQARGQRLEWIGDINPVNGDTNFNEKFKNRVTISADKSISTAYLQWSSLKASDTAMYYCARGGYTMDYWGQG
VL: AIQLTQSPSSLSASVGDRVTITCRSSQSLVHSNGNTYLHWYQQKPGQAPRLLIYKVSYRFSGVPDRFSGSGSGTDFTLKISRVEAEDVGVYYCSQNTHVPRTFGQG
notes: Full-length human IgG1/kappa in CHO supernatant; Variable entries end within framework 4 (...FGQG / ...WGQG); also called Clone 16
B1: the “mean fluorescence relative to chimeric antibody” value with rat CD47 was 2.1 fold of chimera; in the experiment with human CD47, 0.9 fold of chimera; with pig CD47, 1.1 fold of chimera; with mouse CD47 it was 1 fold of chimera.

B2: pVxK7b-037-hum15-LC/pVxK7b-037-hum15-HC (antibody, human IgG1, V domains shown)
VH: QVQLQESGPGLVKPSQTLSLTCTVSGYTFTNYYVFWVRQARGQRLEWIGDINPVNGDTNFNEKFKNRLTISKDTSKNQVVLTMTNMDPVDTATYYCARGGYTMDYWGQG
VL: AIQLTQSPSSLSASVGDRVTITCRSSQSLVHSNGNTYLHWYQQKPGQAPRLLIYKVSYRFSGVPSRFSGSGSGTEFTLTISSLQPDDFATYYCSQNTHVPRTFGQG
notes: Full-length human IgG1/kappa in CHO supernatant; Variable entries end within framework 4 (...FGQG / ...WGQG); also called Clone 15
For B2, the “mean fluorescence relative to chimeric antibody” value was 2.4 fold of chimera in the experiment with rat CD47, 1 fold of chimera with human CD47, 1.2 fold of chimera with pig CD47 and 1.3 fold of chimera with mouse CD47.

B3: pVxK7b-037-hum06-LC/pVxK7b-037-hum06-HC (antibody, human IgG1, V domains shown)
VH: B2 VH
VL: B2 VL with A1D, L4M, Q42L, A48S, R50Q, V63I, S65A, P85S, D86E, T90V
notes: Full-length human IgG1/kappa in CHO supernatant; Variable entries end within framework 4 (...FGQG / ...WGQG); also called Clone 6
On to B3, for which the “mean fluorescence relative to chimeric antibody” value is 2.1 fold of chimera with rat CD47, 0.9 fold of chimera with human CD47, 1.1 fold of chimera with pig CD47 and 1.2 fold of chimera in the experiment with mouse CD47.

B4: pVxK7b-037-hum21-LC/pVxK7b-037-hum21-HC (antibody, human IgG1, V domains shown)
VH: B2 VH
VL: B1 VL
notes: Full-length human IgG1/kappa in CHO supernatant; Variable entries end within framework 4 (...FGQG / ...WGQG); also called Clone 21
On to B4, for which the “mean fluorescence relative to chimeric antibody” value in the experiment with rat CD47 was 2.8 fold of chimera; in the experiment with human CD47, 1.2 fold of chimera; with pig CD47 it was 1.4 fold of chimera; with mouse CD47, 1.2 fold of chimera.

B5: pVxK7b-037-hum05-LC/pVxK7b-037-hum05-HC (antibody, human IgG1, V domains shown)
VH: QVQLQESGPGLVKPSQTLSLTCTVSGYTFTNYYVFWVRQAPGKGLEWVSDINPVNGDTNFNEKFKNRVTISVDTSKNQFSLKLSSVTAADTAVYYCARGGYTMDYWGQG
VL: DIVMTQTPLSLPVTPGEPASISCRSSQSLVHSNGNTYLHWYLQKPGQSPQLLIYKVSYRFSGVPDRFSGSGSGTDFTLKISRVEAEDVGVYYCSQNTHVPRTFGQG
notes: Full-length human IgG1/kappa in CHO supernatant; Variable entries end within framework 4 (...FGQG / ...WGQG); also called Clone 5
With B5, the “mean fluorescence relative to chimeric antibody” value with rat CD47 was 2.2 fold of chimera; with human CD47, 1 fold of chimera; with pig CD47, 1.2 fold of chimera; with mouse CD47 it was 1 fold of chimera.

B6: pVxK7b-037-hum07-LC/pVxK7b-037-hum07-HC (antibody, human IgG1, V domains shown)
VH: QVQLQESGPGLVKPGATVKISCKVSGYTFTNYYVFWVRQARGQRLEWIGDINPVNGDTNFNEKFKNRVTITADKSTSTAYMELSSLRSEDTAVYYCARGGYTMDYWGQG
VL: B5 VL
notes: Full-length human IgG1/kappa in CHO supernatant; Variable entries end within framework 4 (...FGQG / ...WGQG); also called Clone 7
Regarding B6, the “mean fluorescence relative to chimeric antibody” value with rat CD47 was 0.8 fold of chimera; with human CD47, 0.5 fold of chimera; with pig CD47, 0.9 fold of chimera; in the experiment with mouse CD47, 0.4 fold of chimera.

B7: pVxK7b-037-hum01-LC/pVxK7b-037-hum01-HC (antibody, human IgG1, V domains shown)
VH: B1 VH
VL: B5 VL with L42Q, Q47K, S48A, Q50K
notes: Full-length human IgG1/kappa in CHO supernatant; Variable entries end within framework 4 (...FGQG / ...WGQG); also called Clone 1
As to B7, the “mean fluorescence relative to chimeric antibody” value is 2.7 fold of chimera with rat CD47, 1.1 fold of chimera in the experiment with human CD47, 1.3 fold of chimera with pig CD47 and 1.7 fold of chimera with mouse CD47.

B8: pVxK7b-037-hum08-LC/pVxK7b-037-hum08-HC (antibody, human IgG1, V domains shown)
VH: QITLKESGPTLVKPTQTLTLTCTFSGYTFTNYYVFWIRQSPSRGLEWLGDINPVNGDTNFNEKFKNRFTISRDNAKNSLYLQMNSLRAEDTAVYYCARGGYTMDYWGQG
VL: B5 VL with L42Q, Q47K, S48A, Q50K
notes: Full-length human IgG1/kappa in CHO supernatant; Variable entries end within framework 4 (...FGQG / ...WGQG); also called Clone 8
Regarding B8, the “mean fluorescence relative to chimeric antibody” value is 1.2 fold of chimera in the experiment with rat CD47, 0.7 fold of chimera in the experiment with human CD47, 0.8 fold of chimera in the experiment with pig CD47 and 0.7 fold of chimera in the experiment with mouse CD47.

B9: pVxK7b-037-hum23-LC/pVxK7b-037-hum23-HC (antibody, human IgG1, V domains shown)
VH: B2 VH
VL: B5 VL with L42Q, Q47K, S48A, Q50K
notes: Full-length human IgG1/kappa in CHO supernatant; Variable entries end within framework 4 (...FGQG / ...WGQG); also called Clone 23
Turning to B9, the “mean fluorescence relative to chimeric antibody” value in the experiment with rat CD47 was 3.3 fold of chimera; with human CD47 it was 1.2 fold of chimera; with pig CD47, 1.7 fold of chimera; with mouse CD47 it was 1.4 fold of chimera.

B10: pVxK7b-037-hum09-LC/pVxK7b-037-hum09-HC (antibody, human IgG1, V domains shown)
VH: B2 VH
VL: B5 VL with I2V, T7S, P15L, E17Q, L42Q, Q47K, S48A, Q50K
notes: Full-length human IgG1/kappa in CHO supernatant; Variable entries end within framework 4 (...FGQG / ...WGQG); also called Clone 9
For B10, the “mean fluorescence relative to chimeric antibody” value with rat CD47 is 3.7 fold of chimera; with human CD47 it was 1.2 fold of chimera; in the experiment with pig CD47 it was 1.6 fold of chimera; with mouse CD47, 1.4 fold of chimera.

B11: pVxK7b-037-hum10-LC/pVxK7b-037-hum10-HC (antibody, human IgG1, V domains shown)
VH: B2 VH
VL: B5 VL
notes: Full-length human IgG1/kappa in CHO supernatant; Variable entries end within framework 4 (...FGQG / ...WGQG); also called Clone 10
With B11, the “mean fluorescence relative to chimeric antibody” value is 2.9 fold of chimera in the experiment with rat CD47, 1.1 fold of chimera in the experiment with human CD47, 1.5 fold of chimera with pig CD47 and 1.2 fold of chimera with mouse CD47.

B12: pVxK7b-037-hum12-LC/pVxK7b-037-hum12-HC (antibody, human IgG1, V domains shown)
VH: B6 VH
VL: B5 VL with L42Q, Q47K, S48A, Q50K
notes: Full-length human IgG1/kappa in CHO supernatant; Variable entries end within framework 4 (...FGQG / ...WGQG); also called Clone 12
As to B12, the “mean fluorescence relative to chimeric antibody” value with rat CD47 is 1.3 fold of chimera; with human CD47, 0.8 fold of chimera; with pig CD47, 1.4 fold of chimera; with mouse CD47, 0.6 fold of chimera.

B13: pVxK7b-037-hum14-LC/pVxK7b-037-hum14-HC (antibody, human IgG1, V domains shown)
VH: B1 VH
VL: B5 VL with I2V, T7S, P15L, E17Q, L42Q, Q47K, S48A, Q50K
notes: Full-length human IgG1/kappa in CHO supernatant; Variable entries end within framework 4 (...FGQG / ...WGQG); also called Clone 14
With B13, the “mean fluorescence relative to chimeric antibody” value with rat CD47 was 3.2 fold of chimera; in the experiment with human CD47, 1.1 fold of chimera; with pig CD47, 1.4 fold of chimera; in the experiment with mouse CD47 it was 1.5 fold of chimera.

B14: pVxK7b-037-hum11-LC/pVxK7b-037-hum11-HC (antibody, human IgG1, V domains shown)
VH: B6 VH
VL: EIVLTQSPATLSVSPGERATLSCRSSQSLVHSNGNTYLHWYQQKPGQAPRLLIYKVSYRFSGVPSRFSGSGSGTDFTFTISSLEAEDAATYYCSQNTHVPRTFGQG
notes: Full-length human IgG1/kappa in CHO supernatant; Variable entries end within framework 4 (...FGQG / ...WGQG); also called Clone 11
For B14, the “mean fluorescence relative to chimeric antibody” value with rat CD47 is 1.2 fold of chimera; with human CD47, 0.8 fold of chimera; in the experiment with pig CD47, 1.2 fold of chimera; with mouse CD47, 0.7 fold of chimera.

Values taken from patent US20140161799A1 (ARCH ONCOLOGY, published 2014).
